Reference: patent US20250076311A1 (Chugai, published 2025)
Residue numbers refer to the chain shown, from its start. Names may count otherwise.

T1: cynomolgus monkey FcγRIIb extracellular domain, His-tagged (cynomolgus monkey)
T1 construct: also called cyno FcgRIIb
T1 chain: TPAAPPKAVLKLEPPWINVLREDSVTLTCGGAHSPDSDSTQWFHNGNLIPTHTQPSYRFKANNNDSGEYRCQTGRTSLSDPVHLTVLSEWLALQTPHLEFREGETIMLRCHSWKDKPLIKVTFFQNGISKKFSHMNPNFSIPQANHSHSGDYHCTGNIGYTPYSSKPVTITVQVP

T2: cynomolgus monkey FcγRIIIaS extracellular domain, His-tagged (cynomolgus monkey, UniProt Q8SPW2 21-206 at identity 1.00))
T2 construct: also called cyno FcgRIIIaS
T2 chain: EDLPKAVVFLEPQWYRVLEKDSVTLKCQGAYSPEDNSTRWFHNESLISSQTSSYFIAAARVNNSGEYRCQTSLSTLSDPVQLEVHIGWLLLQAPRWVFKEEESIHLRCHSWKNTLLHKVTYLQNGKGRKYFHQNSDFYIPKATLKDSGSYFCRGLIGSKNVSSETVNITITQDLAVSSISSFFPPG

T3: cynomolgus monkey FcγRIIa3 extracellular domain, His-tagged (cynomolgus monkey)
T3 construct: also called cyno FcgRIIa3
T3 chain: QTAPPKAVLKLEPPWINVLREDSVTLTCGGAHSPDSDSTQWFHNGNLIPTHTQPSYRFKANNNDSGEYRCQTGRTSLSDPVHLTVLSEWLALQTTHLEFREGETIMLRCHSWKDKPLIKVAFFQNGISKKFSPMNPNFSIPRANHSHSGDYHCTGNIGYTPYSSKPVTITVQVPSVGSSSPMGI

T4: cynomolgus monkey FcγRIIa2 extracellular domain, His-tagged (cynomolgus monkey)
T4 construct: also called cyno FcgRIIa2
T4 chain: T3 chain with I127K, K130N, P133H, R142Q

T5: cynomolgus monkey FcγRIIa1 extracellular domain, His-tagged (cynomolgus monkey)
T5 construct: also called cyno FcgRIIa1
T5 chain: T3 chain with T95P, A121T, S128A, P133H, N135D

T6: human FcγRIIb extracellular domain with C-terminal His-tag (human, UniProt P31994 43-217)
T6 construct: also called human FcgRIIb; not shown: His-tag added to C-terminus
T6 sequence: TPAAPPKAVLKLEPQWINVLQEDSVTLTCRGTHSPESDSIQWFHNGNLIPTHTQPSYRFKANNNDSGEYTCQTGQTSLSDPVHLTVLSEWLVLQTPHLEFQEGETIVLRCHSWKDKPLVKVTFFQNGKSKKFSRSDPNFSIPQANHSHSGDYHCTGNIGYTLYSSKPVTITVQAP

T7: cynomolgus monkey FcγRIIa3 extracellular domain with C-terminal His-tag (cynomolgus monkey)
T7 construct: also called cyno FcgRIIa3; cynoFcγRIIa3; not shown: His-tag added to the C-terminus
T7 chain: T3 chain

B1: M103205H795-SG171 / M103202L889-SK1 (antibody, human IgG1, kappa, name in EU numbering)
heavy: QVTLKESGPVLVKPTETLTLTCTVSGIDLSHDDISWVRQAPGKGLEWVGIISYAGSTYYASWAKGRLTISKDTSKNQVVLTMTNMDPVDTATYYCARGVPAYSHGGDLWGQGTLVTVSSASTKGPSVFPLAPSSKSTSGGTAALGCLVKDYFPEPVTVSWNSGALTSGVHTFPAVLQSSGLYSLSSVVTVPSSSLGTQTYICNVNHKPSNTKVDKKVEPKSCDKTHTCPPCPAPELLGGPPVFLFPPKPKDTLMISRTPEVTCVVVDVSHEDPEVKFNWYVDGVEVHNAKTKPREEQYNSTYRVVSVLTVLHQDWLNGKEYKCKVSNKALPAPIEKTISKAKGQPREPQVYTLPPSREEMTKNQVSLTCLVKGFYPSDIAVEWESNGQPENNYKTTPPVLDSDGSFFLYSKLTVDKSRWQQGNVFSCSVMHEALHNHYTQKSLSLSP
light: DIVMTQSPATLSLSPGERATLSCTSSQSVYHANWLSWFQQKPGQPPKLLIYWASTLAYGVPSRFSGSGSGTDFTLTISSLQPEDAATYYCAGGYGGGRYAFGQGTKVEIKRTVAAPSVFIFPPSDEQLKSGTASVVCLLNNFYPREAKVQWKVDNALQSGNSQESVTEQDSKDSTYSLSSTLTLSKADYEKHKVYACEVTHQGLSSPVTKSFNRGEC
notes: also called S239P
B2: M103205H795-SG178 / M103202L889-SK1 (antibody, human IgG1, kappa, name in EU numbering)
heavy: not shown
light: B1 light
notes: also called N325E
B3: M103205H795-SG177 / M103202L889-SK1 (antibody, human IgG1, kappa, name in EU numbering)
heavy: not shown
light: B1 light
notes: also called N325L
B4: M103205H795-SG169 / M103202L889-SK1 (antibody, human IgG1, kappa, name in EU numbering)
heavy: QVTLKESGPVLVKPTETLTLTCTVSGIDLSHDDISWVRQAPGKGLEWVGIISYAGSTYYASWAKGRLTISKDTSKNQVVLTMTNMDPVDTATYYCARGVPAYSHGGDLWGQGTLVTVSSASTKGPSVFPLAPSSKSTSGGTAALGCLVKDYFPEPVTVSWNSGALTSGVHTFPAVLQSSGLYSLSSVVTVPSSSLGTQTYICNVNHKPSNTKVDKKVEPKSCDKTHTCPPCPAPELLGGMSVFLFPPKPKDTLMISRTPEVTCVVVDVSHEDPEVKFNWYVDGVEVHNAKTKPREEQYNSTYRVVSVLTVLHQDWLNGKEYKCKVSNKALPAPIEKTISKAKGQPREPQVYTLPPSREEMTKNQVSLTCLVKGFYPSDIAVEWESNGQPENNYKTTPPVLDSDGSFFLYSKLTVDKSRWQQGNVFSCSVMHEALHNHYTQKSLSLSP
light: B1 light
notes: also called P238M
B5: M103205H795-SG170 / M103202L889-SK1 (antibody, human IgG1, kappa, name in EU numbering)
heavy: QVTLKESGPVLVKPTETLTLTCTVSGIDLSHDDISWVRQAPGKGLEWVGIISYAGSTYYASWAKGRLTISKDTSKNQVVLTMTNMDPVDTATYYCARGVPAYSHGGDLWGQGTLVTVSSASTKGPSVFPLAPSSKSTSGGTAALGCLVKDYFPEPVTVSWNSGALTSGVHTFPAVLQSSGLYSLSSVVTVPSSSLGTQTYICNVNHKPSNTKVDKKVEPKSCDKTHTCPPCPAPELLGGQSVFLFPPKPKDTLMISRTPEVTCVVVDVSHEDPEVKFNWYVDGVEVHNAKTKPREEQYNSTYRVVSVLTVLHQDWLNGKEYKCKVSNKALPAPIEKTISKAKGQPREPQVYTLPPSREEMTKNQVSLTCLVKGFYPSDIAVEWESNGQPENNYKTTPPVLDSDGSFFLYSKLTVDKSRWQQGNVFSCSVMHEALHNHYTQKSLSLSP
light: B1 light
notes: also called P238Q
B6: M103205H795-MY001 / M103202L889-SK1 (antibody, human IgG1, kappa, name in EU numbering)
heavy: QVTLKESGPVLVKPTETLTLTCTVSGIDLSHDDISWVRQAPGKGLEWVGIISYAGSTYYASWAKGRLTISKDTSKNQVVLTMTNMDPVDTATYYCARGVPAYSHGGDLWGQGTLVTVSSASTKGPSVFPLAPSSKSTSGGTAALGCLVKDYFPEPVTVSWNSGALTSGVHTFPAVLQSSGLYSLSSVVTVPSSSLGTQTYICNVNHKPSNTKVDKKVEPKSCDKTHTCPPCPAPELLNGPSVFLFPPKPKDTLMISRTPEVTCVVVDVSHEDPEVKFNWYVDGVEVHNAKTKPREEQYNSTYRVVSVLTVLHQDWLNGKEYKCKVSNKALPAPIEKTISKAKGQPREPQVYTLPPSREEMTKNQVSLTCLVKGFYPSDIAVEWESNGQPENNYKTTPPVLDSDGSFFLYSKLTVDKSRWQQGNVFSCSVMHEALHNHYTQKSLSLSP
light: B1 light
notes: also called G236N
B7: M103205H795-SG179 / M103202L889-SK1 (antibody, human IgG1, kappa, name in EU numbering)
heavy: not shown
light: B1 light
notes: also called A327I
B8: M103205H795-SG174 / M103202L889-SK1 (antibody, human IgG1, kappa, name in EU numbering)
heavy: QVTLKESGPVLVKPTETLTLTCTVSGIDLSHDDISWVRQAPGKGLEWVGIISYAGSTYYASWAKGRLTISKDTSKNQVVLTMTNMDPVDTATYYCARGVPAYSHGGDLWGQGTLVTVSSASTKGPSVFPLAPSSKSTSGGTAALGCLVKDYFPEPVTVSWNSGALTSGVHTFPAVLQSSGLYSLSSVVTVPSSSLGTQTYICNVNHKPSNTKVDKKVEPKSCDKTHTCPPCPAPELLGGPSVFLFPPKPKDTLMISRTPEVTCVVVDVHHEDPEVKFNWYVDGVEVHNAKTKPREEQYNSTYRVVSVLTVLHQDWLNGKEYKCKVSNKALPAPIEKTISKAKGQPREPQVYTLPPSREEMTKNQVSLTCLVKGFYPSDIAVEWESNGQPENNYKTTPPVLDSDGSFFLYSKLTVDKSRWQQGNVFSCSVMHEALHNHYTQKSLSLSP
light: B1 light
notes: also called S267H
B9: M103205H795-SG168 / M103202L889-SK1 (antibody, human IgG1, kappa, name in EU numbering)
heavy: not shown
light: B1 light
notes: also called P238E
B10: M103205H795-SG175 / M103202L889-SK1 (antibody, human IgG1, kappa, name in EU numbering)
heavy: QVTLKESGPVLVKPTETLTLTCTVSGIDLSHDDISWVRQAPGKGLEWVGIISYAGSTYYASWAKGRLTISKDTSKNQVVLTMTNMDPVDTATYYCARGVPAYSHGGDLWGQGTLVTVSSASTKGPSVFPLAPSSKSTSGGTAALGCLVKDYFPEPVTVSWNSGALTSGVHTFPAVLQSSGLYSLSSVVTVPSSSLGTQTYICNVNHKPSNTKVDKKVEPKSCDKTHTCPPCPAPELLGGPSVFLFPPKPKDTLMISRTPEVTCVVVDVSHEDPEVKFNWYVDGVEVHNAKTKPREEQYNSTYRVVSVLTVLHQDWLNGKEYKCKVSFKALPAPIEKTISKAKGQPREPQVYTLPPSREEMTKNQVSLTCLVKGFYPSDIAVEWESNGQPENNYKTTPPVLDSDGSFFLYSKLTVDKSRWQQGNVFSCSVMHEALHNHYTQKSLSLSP
light: B1 light
notes: also called N325F
B11: M103205H795-SG173 / M103202L889-SK1 (antibody, human IgG1, kappa, name in EU numbering)
heavy: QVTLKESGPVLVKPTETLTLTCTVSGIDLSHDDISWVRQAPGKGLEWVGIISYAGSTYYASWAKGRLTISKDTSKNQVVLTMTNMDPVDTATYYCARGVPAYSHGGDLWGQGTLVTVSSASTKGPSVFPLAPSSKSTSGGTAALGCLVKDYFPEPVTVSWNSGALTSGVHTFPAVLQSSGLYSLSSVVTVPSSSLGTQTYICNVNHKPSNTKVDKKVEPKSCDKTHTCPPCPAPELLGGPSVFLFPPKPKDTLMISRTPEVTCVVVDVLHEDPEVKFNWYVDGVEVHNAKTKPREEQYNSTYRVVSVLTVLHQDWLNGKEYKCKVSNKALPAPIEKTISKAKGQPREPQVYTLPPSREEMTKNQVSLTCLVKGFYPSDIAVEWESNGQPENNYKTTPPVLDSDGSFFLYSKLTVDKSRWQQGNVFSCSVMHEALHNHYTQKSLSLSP
light: B1 light
notes: also called S267L
B12: M103205H795-SG165 / M103202L889-SK1 (antibody, human IgG1, kappa, name in EU numbering)
heavy: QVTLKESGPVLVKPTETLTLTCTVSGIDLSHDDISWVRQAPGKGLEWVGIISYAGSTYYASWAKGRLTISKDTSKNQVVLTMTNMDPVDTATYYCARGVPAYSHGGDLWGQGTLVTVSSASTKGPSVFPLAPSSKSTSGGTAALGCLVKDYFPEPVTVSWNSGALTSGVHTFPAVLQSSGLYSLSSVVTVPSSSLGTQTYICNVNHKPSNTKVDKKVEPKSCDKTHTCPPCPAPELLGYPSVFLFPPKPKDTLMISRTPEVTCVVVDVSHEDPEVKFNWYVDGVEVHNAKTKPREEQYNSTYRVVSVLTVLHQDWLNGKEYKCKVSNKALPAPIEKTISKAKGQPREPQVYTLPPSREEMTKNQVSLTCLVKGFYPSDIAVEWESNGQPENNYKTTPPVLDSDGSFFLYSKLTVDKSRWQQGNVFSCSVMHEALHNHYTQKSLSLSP
light: B1 light
notes: also called G237Y
B13: M103205H795-SG167 / M103202L889-SK1 (antibody, human IgG1, kappa, name in EU numbering)
heavy: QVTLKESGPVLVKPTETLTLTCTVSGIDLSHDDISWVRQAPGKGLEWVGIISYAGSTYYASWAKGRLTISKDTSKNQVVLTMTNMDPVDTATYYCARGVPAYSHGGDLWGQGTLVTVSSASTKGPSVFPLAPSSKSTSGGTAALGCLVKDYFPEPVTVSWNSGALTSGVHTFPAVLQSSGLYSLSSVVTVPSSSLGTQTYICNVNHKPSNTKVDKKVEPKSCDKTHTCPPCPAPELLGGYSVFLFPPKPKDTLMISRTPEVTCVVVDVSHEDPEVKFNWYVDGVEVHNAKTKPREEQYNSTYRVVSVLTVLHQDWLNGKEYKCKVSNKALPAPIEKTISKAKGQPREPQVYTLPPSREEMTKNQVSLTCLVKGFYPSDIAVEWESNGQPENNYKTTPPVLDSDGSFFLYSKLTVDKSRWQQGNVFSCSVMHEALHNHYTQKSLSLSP
light: B1 light
notes: also called P238Y
B14: M103205H795-SG172 / M103202L889-SK1 (antibody, human IgG1, kappa, name in EU numbering)
heavy: not shown
light: B1 light
notes: also called V266F
B15: M103205H795-SG176 / M103202L889-SK1 (antibody, human IgG1, kappa, name in EU numbering)
heavy: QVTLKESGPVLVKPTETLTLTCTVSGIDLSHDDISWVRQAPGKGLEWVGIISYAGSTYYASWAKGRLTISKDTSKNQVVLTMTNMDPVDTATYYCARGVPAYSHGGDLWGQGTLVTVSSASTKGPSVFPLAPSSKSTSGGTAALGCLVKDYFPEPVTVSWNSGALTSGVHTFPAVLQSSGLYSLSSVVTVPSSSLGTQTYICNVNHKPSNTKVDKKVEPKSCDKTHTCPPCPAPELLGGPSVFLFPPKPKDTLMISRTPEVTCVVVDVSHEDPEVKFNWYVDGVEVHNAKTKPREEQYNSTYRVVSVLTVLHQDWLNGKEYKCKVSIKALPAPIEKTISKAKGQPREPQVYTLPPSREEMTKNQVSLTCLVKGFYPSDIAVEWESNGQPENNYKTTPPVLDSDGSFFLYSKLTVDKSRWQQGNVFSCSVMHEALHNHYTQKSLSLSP
light: B1 light
notes: also called N325I
B16: M103205H795-SG166 / M103202L889-SK1 (antibody, human IgG1, kappa, name in EU numbering)
heavy: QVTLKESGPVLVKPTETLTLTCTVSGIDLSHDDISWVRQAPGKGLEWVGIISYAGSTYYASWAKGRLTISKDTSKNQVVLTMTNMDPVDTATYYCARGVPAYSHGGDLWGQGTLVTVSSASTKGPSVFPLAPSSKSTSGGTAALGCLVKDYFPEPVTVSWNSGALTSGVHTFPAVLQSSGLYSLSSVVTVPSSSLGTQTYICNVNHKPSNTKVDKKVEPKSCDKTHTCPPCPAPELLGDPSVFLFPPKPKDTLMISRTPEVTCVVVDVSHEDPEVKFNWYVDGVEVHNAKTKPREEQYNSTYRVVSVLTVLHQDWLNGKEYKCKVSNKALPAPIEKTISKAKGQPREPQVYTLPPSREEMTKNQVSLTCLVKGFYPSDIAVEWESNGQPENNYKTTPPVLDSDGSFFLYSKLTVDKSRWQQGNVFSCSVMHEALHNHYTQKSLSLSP
light: B1 light
notes: also called G237D
B17: M103205H795-MY205/M103202L889-SK1 (antibody, human IgG1, kappa)
heavy: QVTLKESGPVLVKPTETLTLTCTVSGIDLSHDDISWVRQAPGKGLEWVGIISYAGSTYYASWAKGRLTISKDTSKNQVVLTMTNMDPVDTATYYCARGVPAYSHGGDLWGQGTLVTVSSASTKGPSVFPLAPSSKSTSGGTAALGCLVKDYFPEPVTVSWNSGALTSGVHTFPAVLQSSGLYSLSSVVTVPSSSLGTQTYICNVNHKPSNTKVDKKVEPKSCDKTHTCPPCPAPELLNGPSVFLFPPKPKDTLMISRTPEVTCVVVDVSDEDPEVKFNWYVDGVEVHNAKTKPREELYNSTYRVVSVLTVLHQDWLNGKEYKCKVSNKALPKPIEKTISKAKGQPREPQVYTLPPSREEMTKNQVSLTCLVKGFYPSDIAVEWESNGQPENNYKTTPPVLDSDGSFFLYSKLTVDKSRWQQGNVFSCSVMHEALHNHYTQKSLSLSP
light: B1 light
notes: also called MS1032LO06-MY205
B18: M103205H795-MY201/M103202L889-SK1 (antibody, human IgG1, kappa)
heavy: B17 heavy with L297Q
light: B1 light
notes: also called MS1032LO06-MY201
B19: M103205H795-MY201/M103202L889-SK1 (antibody, human IgG1, kappa)
heavy: B17 heavy with L297Q
light: B1 light
notes: Fc variant of MS1032LO06-SG1; also called MS1032LO06-MY201

Target: T1, cynomolgus monkey FcγRIIb extracellular …
Assay: SPR (Biacore), 25C, FcgR bound per antibody captured
Method: (§1) In the next step, cross-reactivity of these substitutions to cynoFcγRs was evaluated.
(§2) The value of the amount of FcγR binding was obtained by dividing the amount of FcγR bound by the amount of each antibody captured.

Row | Binder | Binding to cynoFcgRs (SG1 = 100)
1 | B1 | 20
2 | B2 | 26
3 | B3 | 18
4 | B4 | 22
5 | B5 | 18
6 | B6 | 85
7 | B7 | 19
8 | B8 | 11
9 | B9 | 28
10 | B10 | 14
11 | B11 | 12
12 | B12 | 30
13 | B13 | 22
14 | B14 | 16
15 | B15 | 16

Target: T2, cynomolgus monkey FcγRIIIaS …
Assay: as above
Method: as §1, §2

Row | Binder | Binding to cynoFcgRs (SG1 = 100)
16 | B2 | 36
17 | B3 | 21
18 | B4 | 22
19 | B5 | 12
20 | B6 | 15
21 | B16 | 5
22 | B7 | 48
23 | B8 | 15
24 | B9 | 13
25 | B11 | 24
26 | B12 | 7
27 | B13 | 14
28 | B14 | 31
29 | B15 | 20

Target: T3, cynomolgus monkey FcγRIIa3 …
Assay: as above
Method: as §1, §2

Row | Binder | Binding to cynoFcgRs (SG1 = 100)
30 | B1 | 18
31 | B2 | 29
32 | B3 | 25
33 | B4 | 32
34 | B5 | 21
35 | B6 | 62
36 | B16 | 17
37 | B7 | 28
38 | B8 | 20
39 | B9 | 30
40 | B10 | 17
41 | B11 | 21
42 | B12 | 30
43 | B13 | 38
44 | B14 | 27
45 | B15 | 19

Target: T4, cynomolgus monkey FcγRIIa2 …
Assay: as above
Method: as §1, §2

Row | Binder | Binding to cynoFcgRs (SG1 = 100)
46 | B1 | 20
47 | B2 | 21
48 | B3 | 15
49 | B4 | 16
50 | B5 | 15
51 | B6 | 86
52 | B16 | 10
53 | B7 | 17
54 | B8 | 16
55 | B9 | 16
56 | B10 | 13
57 | B11 | 14
58 | B12 | 17
59 | B13 | 14
60 | B14 | 17
61 | B15 | 15

Target: T5, cynomolgus monkey FcγRIIa1 …
Assay: as above
Method: as §1, §2

Row | Binder | Binding to cynoFcgRs (SG1 = 100)
62 | B1 | 17
63 | B2 | 22
64 | B3 | 15
65 | B4 | 17
66 | B5 | 16
67 | B6 | 83
68 | B16 | 10
69 | B7 | 19
70 | B8 | 13
71 | B9 | 21
72 | B10 | 13
73 | B11 | 13
74 | B12 | 18
75 | B13 | 18
76 | B14 | 14
77 | B15 | 14

Target: T6, human FcγRIIb extracellular domain with …
Assay: SPR Biacore, antibody captured, FcgR analyte
Method: (§3) The kinetic analysis of interactions between these antibodies and FcγR was carried out using BIACORE® T200 or BIACORE® 4000 (GE Healthcare). HBS-EP+ (GE Healthcare) was used as the running buffer, and the measurement temperature was set to 25° C. […] After the measurement, the antibody captured on the chip was washed off by allowing reaction with 10 mM glycine-HCl, pH1.5 and 25 mM NaOH so that the chip was regenerated and used repeatedly. The sensorgrams obtained as measurement results were analyzed by the 1:1 Langmuir binding model using the BIACORE® Evaluation Software to calculate the binding rate constant ka (L/mol/s) and dissociation rate constant kd (1/s), and the dissociation constant KD (mol/L) was calculated from these values. […] Regarding such interactions, KD values were calculated using the following 1:1 binding model described in BIACORE® T100 Software Handbook BR1006-48 Edition AE.

Row | Binder | KD fold (SG1 = 1)
78 | B17 | 8.7 fold
79 | B18 | 4.7 fold

Target: T8, cynomolgus monkey FcγRIIIaS extracellular domain with C-terminal His-tag (cynomolgus monkey, UniProt A3RFZ7 21-206 (rhesus entry))
T8 construct: also called cyno FcgRIIIaS; cynoFcγRIIIaS; not shown: His-tag added to C-terminus
Assay: SPR Biacore, antibody captured, FcgR analyte
Method: as §3

Row | Binder | KD fold (SG1 = 1)
80 | B17 | 0.08 fold

Target: T7, cynomolgus monkey FcγRIIa3 …
Assay: SPR (BIACORE), antibody captured, FcgR analyte
Method: as §3

Row | Binder | Kd
81 | B19 | 5.9 µM
